Experiment: yeast display, Sf9 membrane polyspecificity reagent, FACS + sequencing; frameworks hold sequencing errors
How it was run: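 Galactose induction of a Saccharomyces cerevisiae BJ5465 synthetic nanobody display library ran 36–48 hours. The cells were then stained for 1 hour at 4 °C with 10% biotinylated, detergent-solubilized Sf9 membrane reagent, pulled down on streptavidin microbeads and FACS-sorted into low and high (top ~1%) gates on expression and reagent-binding fluorescence. Labels for polyreactivity follow the gate of origin.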

Sequence | polyreactivity (PSR sort gate)
QVQLEESAGGLVQAGGSLRLSCAASGSTFYLNAMGSYRQAPGKERELVAAITVSGGSTYYADSVKGRFTISRDNAKNTVYLQMNSLKPEDNAVYYCARELLSPTYQRWYYYWGQGSQVTVSS | low polyreactivity
QVQLEESGAGLVQAGGSLRLSCAASGRIFTVYAMGWYRHAPGKEREFVAAIRSSGGRTYYADSVKGRFTISRDNEKNTVYLQMNSLNPEDTAVYYCAASVTGPSGADYYYWGQGTQVTVSS | high polyreactivity
QVQLEESGARIVQAGGSLRLSCAASGITLAGYVMGWYRQAPGKERELVADISSSGDSTYYADSVNGRFTISRDNAKNTVYLQMNSLKPEDTAVYYCAAEEIIPLIYKGYPFDYWGQATQVTVSS | low polyreactivity
QVQLEESGGCLVQAGGSLRLICAASGSTFDANAMGWYRQAPGKERELVATISDGGSTNYADSVKGRFTISRDNAKNTVYLQMNSLKPEDTSVYYCAALWYYGGKSACPGGGYWGQGTQVTVSS | low polyreactivity
QVQLEESGGCLVQEGGSLRLSCAASGIIFTSNTLGWYRQAPGKEREFVASINWNGSSTYADSVKGRFTISRDNAKNTVYLQMNSLKPEDTAVYYCNADYNRNSVQFSLYDYWGQGTQVTVSS | low polyreactivity
QVQLEESGGGIVQAGGSLRLSCAASGSIIILYAMGWSRQAPGKEREFVAAITWSGGSTYYADSVKGRFTISRDNAKNTVYLQMNSLKPEDTAVYYCAARIRTVAHVDYDYWGQGTQVTVSS | high polyreactivity
QVQLEESGGGLDQAGGSLRLNCAASGLISVYYVRGWYIQAPGKELELVAAINRSGGNTYYADSVKGRFTISRDNAQNTVNLQMNRLKPDVTAVYYCKASLYFYRYGHDYESDYWGQGTQVTVSS | high polyreactivity
QVQLEESGGGLFQAGGSLRLICAASGRICDVNAMGWYRQAPGKERELVAAISWSGGITYYADSVKGRFTISRDNAKNTVYLQMNSLKPEDTAVYYCAADKYQGYTFYQGYPGGGGYWGQGTQVTVSS | low polyreactivity
QVQLEESGGGLFQAGGSLRLSCAASGLNFGQNVMGWYRQAPGKERELLAAIRESGGRTYYADSVKGRFTISRDNAKNTFYIQMNSLNPEDTAVYYCRAYWRYSRYDYWGQGTQVTGSS | high polyreactivity
QVQLEESGGGLFQAGGSLRLSCAASGRIFDPYAMGWYRQAPGKERDLVATITLRGGITYYADSVKGRFTISRDNAKNTVYLQMNSLKPEDTAVYYCAKKVRSYVRWEYDYWGQGTQVTVSS | low polyreactivity
QVQLEESGGGLVQAGGILRFSCAASGYTFRGYAMGWYRQAPGKEREFVAAIRNSGDSSYYADSVKGRFTISRDNAKNTVYLQRHSLKPEDTAVYYSAAYSRSSKYDYWGQGSQVTVSS | low polyreactivity
QVQLEESGGGLVQAGGILRLSCAASGFIIRRNALGLYRKAAGQERELVATIRASGGRTYYADSVKGRFTISRDNAKNTVYLQMNSVKPEDTAVYYCAAFRWYKPHDYWGQGTQVTVSS | high polyreactivity
QVQLEESGGGLVQAGGRLRLSCAASGPIFGYYAMGWYRQAPGKERELVAGIDWSGGNTYYADSVKGRFTISRDNAKYTVYLQMNSLKPEDTAVYYCNTEGGRDTAWYDYWGQGTQVTVSS | low polyreactivity
QVQLEESGGGLVQAGGRLRLSCAASGSIFYVYAMGWYRQAPGKERELVASINKSGGSTYFADSVKGRFTISRDNAKNTVYLQMNSLKPEDTAVYYCAARTGWPRVGFQYPAHVGFDYWGQGTQVTVSS | low polyreactivity
QVQLEESGGGLVQAGGRLRLTCAASGLTFYANAMGWYRQAPGKERELVATISVGTDSTNYADSVKGRFTISRDNAKNTVYLQMTSMKPEDTAVYYCKALYEEYYAQDPYDYWGQGTQVTVSS | high polyreactivity
QVQLEESGGGLVQAGGSHRLSCAASGITFSLYAMGWYRQAPGKERELVATIDSGGSTNYADSVKGRFTISRDNAKNTVYLQMNSLIPEDTAVYYCAADGVWYYYDMDYWGQGTQVTVSS | low polyreactivity
QVQLEESGGGLVQAGGSLRISCAASGLIFRTNAIGWYRQAPGKERELVAAISWSTGSTYYADSVKGRFTISRDNAKNTVYLQMNSLKPEDTAVYYCARTLRWTYRYGYWGQGTQVTVSS | high polyreactivity
QVQLEESGGGLVQAGGSLRISCAASGRTFRRYAMGWYRQAPGKERELVATISRGGSTYYADSVKGRFTISRDNAKNTVYLQMNSLKPEDTAVFYCAAQRQVIYASEENYWGQGTQVTVSS | high polyreactivity
QVQLEESGGGLVQAGGSLRLAVLPPDLPSTLNDMGWYRQAPGKERELVAAITRGGSTNYADSVKGRFTISRDNAKNTVYLQMNSLKPEDTAVYYCAAPYAGWRDGGDYWGQGTQVTVSS | low polyreactivity
QVQLEESGGGLVQAGGSLRLICAASGGTFSYNAMGWYRQAPGKERELVAAISWSGTRTYYADSVKGRFTISRDNEKNTVYLQMNSLKPEDTAVYYCNADSDTPRYDYWGLGTQVTVSS | low polyreactivity
QVQLEESGGGLVQAGGSLRLICAAYGSIIPYNAMGWYRQQPGEFVDAISYSSGSTYYADSVKGRFTISRDNAKNTVYLQMNSLKPEDTAVYYCAAGSWYPPSYVWLRRYDYWGQGTQVTVSS | low polyreactivity
QVQLEESGGGLVQAGGSLRLSCAASGFIFGPYAMGWYRQAPGKERELVAAMSSSGGSTSYEDSVKGRFTISRDNAKNTVYLQMNSLKPEDTAVYYCAARGRYRLYSNYYDYWGQGTQVNVSS | high polyreactivity

Sequence | polyreactivity (PSR sort gate)
QVQLEESGGGLVQAGGSLRLSCAASGFIFSRYDMGWYRQAPGKERELVAAITSGGSTYYADSVKGRFTISRDNAKNTVYLQMNSLKPEDTAVYYCNAYVRSDYDYWGQGTQVTVSS | high polyreactivity
QVQLEESGGGLVQAGGSLRLSCAASGFIYVKYAMGWYRQAPGKERELVAAITNGGSTYYADSVKGRFTISRDNAKYTVYLQMNSLKPEDTAVYYCAAQYHDWWRRLLYRSFRPFDYWGQGTQVTVSS | low polyreactivity
QVQLEESGGGLVQAGGSLRLSCAASGFNFAAYTMGWNRQAPGKEREWVAGISKRGGTTYYADSVKGRFTISRDNAKNTVYLQMNSLKPEDTAVYYCAASRYVTTSRYQYNHWGQGTQVTVSS | high polyreactivity
QVQLEESGGGLVQAGGSLRLSCAASGFTFGFYAMGWYRQAPGKERELVARISYSGGSTYYADSVKGRFTISRDNAKNTVYLQMNSLKPEDTAVYYCNRGYRRLQEDYWGQGTQVTVSS | high polyreactivity
QVQLEESGGGLVQAGGSLRLSCAASGFTFKRYAMGSYRQAPGKEREFVAAITRGGGSTYYADSVKGRFTISRDNAKNSVYLQMNSLKPEDTAVYYCAADPQYTIRDYWGQGTQVTVSS | high polyreactivity
QVQLEESGGGLVQAGGSLRLSCAASGFTFPTNAMGWYRQAPGKERELVATISLGAGSTHYADSVKGRFTISRDNAKNTVYLQMNSLKPEDTAVYYCAARSRRWYDYDYWGQGTQVTVSS | low polyreactivity
QVQLEESGGGLVQAGGSLRLSCAASGFTFSLYGMGWYRQAPGKERELVAAIRSGGSTNYADSVKGRFTISRDNAKNTVYLQMNSLKPEDTAVYYCATDIHSVNNNRDKHDYDYWGQGTLVTVSS | low polyreactivity
QVQLEESGGGLVQAGGSLRLSCAASGFTFSTNSMGWYRPAPGKERELVAAISRGGSTNYADSVKGRFTISRDNAKNTVYLQMNSLKPEDTAVYYCNAYQSPDEEEYYWGQGTQVTVSS | low polyreactivity
QVQLEESGGGLVQAGGSLRLSCAASGFTFYRDTMGGYRQAPGKERELFAAITRDGSTYYADSVKGRFTISRDNAKYTVSLQLNSLKPEDTAVYYWNARGTVPWYGYDYWGQGTQVNVSS | high polyreactivity
QVQLEESGGGLVQAGGSLRLSCAASGFTFYYYAMGWYRQAPGKERELVAAINTSGGSTYYADSVKGRFTNSRDNAKNTVYLQMNSLKPVDTAVYYCAAVDGFWTQYPRMGYWGQGTQVTVSS | high polyreactivity
QVQLEESGGGLVQAGGSLRLSCAASGGTFGQYTMGWYRQAPGKERELVAAISTRGGSTNYADSVKGRFTISRDNAKNTVYLQMNSLKPEDTAVYYCAAKDKGRYYENVGRRGLDYWGQGTQVTVSS | high polyreactivity
QVQLEESGGGLVQAGGSLRLSCAASGGTFYYSPMGWDREPPGKERELVAAIRWRGGNTYYADSVKGRFTISLDNAKNTVYLQMNSVKPEDTAVYYCAAQTHDYNRYVGTTAYDYWGQGTQVTVSS | low polyreactivity
QVQLEESGGGLVQAGGSLRLSCAASGIIFGRYAMGWYRQAPGKQRELVAAITSGGSTSYADSVKGRFTISRDNAKNTVYLQMNSLKPEDTAVYYCAVVFVWGWPGYYWGQGTQVTVSS | high polyreactivity
QVQLEESGGGLVQAGGSLRLSCAASGIIFRLYGMGWYRQAPGKEREFVATITWRGGRTNYADSVKGRFTISRDNAKNTVYLQMNSLTPEDTAVYYCANVVRYARSNEYDSSGQGTQVTVSS | low polyreactivity
QVQLEESGGGLVQAGGSLRLSCAASGIIIVRNAMGWYRQAPGKEREFVAAISSSGGSTYYADSVKGRFTISRDNGKNTVYLQMNSLNPEDTAVYNCNARHRQWARGYWGQGTQVTVSS | high polyreactivity
QVQLEESGGGLVQAGGSLRLSCAASGILRDNAMGWYRQAPGKERELVATINGDGSTYADSVKGRFTISRDNAKNTVYLQMNSLKPEDTAVYYCAAPFTTTFDYWGQGTQVTVSS | low polyreactivity
QVQLEESGGGLVQAGGSLRLSCAASGITFDFNAKGWYRQAPGTERELVAAIRNRGGSTYYADSVKGRFTISRDNAKNTVYLQMHSLKPVDTAVYYCNVDLWPFVYSWWSYDYWGQGTQVTVSS | high polyreactivity
QVQLEESGGGLVQAGGSLRLSCAASGITFSRYAMGWYRQATGKERELVARISSSGGSTNYADSVKGRFTISRDNAKNTVYLQMNSLKPEDSAVYYCAVATRGKVARRVTFDYWGQGTQVTVSS | high polyreactivity
QVQLEESGGGLVQAGGSLRLSCAASGLIFGKYAMGWYRTAPGKERELVAAITSSGGGTYYADSVKGRFTISRDNAKNTVYLQMNSLKPEDTAVYYCSTGPDPKYDYWGQGTQVTVSS | high polyreactivity
QVQLEESGGGLVQAGGSLRLSCAASGLNIAVYTMGWYRQAPGKERELVAAITRRSTRTYYADSVKGRFTISRDNALISVFLQMNSLKPEDTAVYYCAADRVSSGAAFEFWGQGTQVTVSS | low polyreactivity
QVQLEESGGGLVQAGGSLRLSCAASGLTFPWYAMGWYRPATGKEREFVAAITGGGSTYYADSVKGRFTISRDNAKNTVYLQMNSLKPEDTAVYYCNTDVPYGLDVSDTIDYYYWGQGTLVTVSS | low polyreactivity
